Conditions: Homo sapiens, pH 7.5, Fluorescence, Sodium phosphate 20mM, transition: 2, whole UniProt chain shown

B1: wild type, Q5NV88 (protein)
chain: NFMLTQPHSVSESPGKTVTISCTRSSGSIASNYVQWYQQRPGSSPTTVIYEDNQRPSGVPDRFSGSIDSSSNSASLTISGLKTEDEADYYCQSYDSSN
denaturant midpoint (higher = more stable) (25 °C, GdnHCl): 1.41 M
unfolding free energy (25 °C, GdnHCl): 5.1 kcal/mol
Tm (Thermal): 49.9 °C
unfolding enthalpy (calorimetric) (Thermal): 86.2 kcal/mol
unfolding free energy (Thermal): 5.2 kcal/mol
